How the values were obtained:
human CD47 [1] = target: T1, human CD47 (human, UniProt Q08722); test: not stated; binding affinity of IgG2σ mAbs to human and cynomolgus monkey CD47; method is described only in the Supplementary section
T1 construct: CD47, human; the methods are in the Supplementary section; also called integrin-associated protein

cynomolgus monkey CD47 [2] = target: T2, cynomolgus monkey CD47 (Macaca fascicularis, UniProt A0A2K5X4I2); test: as above
T2 construct: CD47, cynomolgus monkey; also called cyno CD47

human CD47 [3] = target: T3, human CD47 (human, UniProt Q08722); test: not stated; binding affinity of IgG2σ mAbs to human and cyno CD47; the method stands in the Supplementary Information, not shown
T3 construct: CD47, human; The crystal structures used the human CD47 extracellular domain with a C15G mutation; also called integrin-associated protein

cynomolgus monkey CD47 [4] = target: T4, cynomolgus monkey CD47 (Macaca fascicularis, UniProt A0A2K5X4I2); test: as above
T4 construct: CD47, cynomolgus monkey; also called cyno CD47

Binder | Kd (human CD47 [1]) [nM] | Kd (cynomolgus monkey CD47 [2]) [nM] | Kd (human CD47 [3]) [nM] | Kd (cynomolgus monkey CD47 [4]) [nM]
IgG2σ C47B161 (antibody, V domains shown, Human IgG2σ (effector function silent Fc)) VH: QVQLVQSGAEVKKPGASVKVSCKASGYTFTDYNMHWVRQAPGQRLEWMGDIYPYNGGTGYNQKFKGRVTITRDTSASTAYMELSSLRSEDTAVYYCARGGWHAMDSWGQGTLVTVSS VL: DIVMTQSPLSLPVTPGEPASISCRSRQSIVHTNRYTYLAWYLQKPGQSPQLLIYKVSNRFSGVPDRFSGSGSGTDFTLKISRVEAEDVGVYYCFQGSHVPYTFGGGTKLEIK | 2.87 | 2.96 |  | 
anti-CD47 mAb B6H12.2 engineered with the human IgG2σ Fc (antibody, V domains shown, heavy chain of B6H12.2 with a human IgG2σ Fc; light chain of B6H12.2; also called IgG2σ B6H12.2) VH: EVKLVESGGDLVKPGGSLKLSCAASGFTFSGYGMSWVRQTPDKRLEWVATITSGGTYTYYPDSVKGRFTISRDNAKNTLYLQIDSLKSEDTAIYFCARSLAGNAMDYWGQGTSVTVSS VL: DIVMTQSPATLSVTPGDRVSLSCRASQTISDYLHWYQQKSHESPRLLIKFASQSISGIPSRFSGSGSGSDFTLSINSVEPEDVGVYYCQNGHGFPRTFGGGTKLEIK |  |  | 0.5 | 0.6
IgG2σ C47B222 (antibody, V domains shown, Human IgG2σ (effector function silent Fc)) VH: EVQLVQSGAEVKKPGESLKISCKGSGYSFTDYWIGWVRQMPGKGLEWMGIIYPGDSDTRYSPSFQGQVTISADKSISTAYLQWSSLKASDTAVYYCARVGRFASHQLDYWGQGTLVTVSS VL: EIVLTQSPATLSLSPGERATLSCRASQSVNNRLAWYQQKPGQAPRLLIHWASTRAIGIPARFSGSGSGTDFTLTISSLEPEDFAVYYCQQGASWPFTFGQGTKVEIK | 1.12 | 0.84 |  | 
